In PMC7660908:

Assays:
[1] = molecular target: AausFP2 (His-tag removed with proteinase K, crystallised) (Aequorea cf. australis); test: crystal structure; AausFP2 at 51 mg/ml, hanging drop, 14%-24% PEG 3350 trisodium citrate, 0.2 M sodium chloride, 0.1 M HEPES pH 7.3-8.2; 1 molecule in the asymmetric unit; interfaces analysed with PISA
[2] = molecular target: AausFP1 (His-tag cleaved, crystallised) (Aequorea cf. australis); test: crystal structure; AausFP1 at 40 mg/ml, hanging drop, 0.7-1.3 M trisodium citrate, 0.2 M sodium chloride, 0.1 M Tris pH 6.5-8.0; 4 molecules in the asymmetric unit; interfaces analysed with PISA

| stoichiometry N [1] | stoichiometry N [2] | Substance |
| --- | --- | --- |
| 2 | – | AausFP2 (His-tag removed with proteinase K, crystallised) (natural protein) |
| – | 2 | AausFP1 (His-tag cleaved, crystallised) (natural protein) |
